# Results published in patent US20140023585A1, “177 LUTETIUM-LABELED BOMBESIN ANALOGS FOR RADIOTHERAPY” (UNIVERSITATSSPITAL BASEL, priority 2010, published 2014).
# Assay: in vivo
# Conditions: male, NMRI nu/nu, mouse, iv, total radioactivity; for tissue uptake at 1 h: 1.0 h p.a.; for tissue uptake at 4 h: 4.0 h p.a.; for tissue uptake at 24 h: 24.0 h p.a.; for tissue uptake at 48 h: 48.0 h p.a.; for tissue uptake at 72 h: 72.0 h p.a.
# Description: Biodistribution was investigated in NMRI nude mice bearing subcutaneous PC-3 tumors in the right hind limb at different time-points. Body weight of the male mice was approx. 30 g, 3 animals were investigated per time-point. After injecting an intravenous dose into the tail vein, mice were sacrificed at indicated time points and dissected organs were analyzed by radioactive counting. An administration dose of 100 μL was applied per animal with a mean activity of 86 kBq.
# At indicated time points urine and feces were quantitatively collected. At the same time points, animals were sacrificed and exsanguinations under isoflurane anesthesia and the following organs and tissues were removed for measurement of [^177Lu] using the gamma-counter: spleen, liver, gallbladder, kidneys, lung, femur, heart, brain, fat, thyroid, muscle, skin, blood, tail, stomach (without content), prostate, intestine (with content), pancreas, adrenals, and the remaining body (designated as carcass).
# Whole organs and tissues or aliquots were weighted and measured in a gamma-counter for radioactivity. In order to get the amount of total radioactivity administered in each animal (=100%) 3 aliquots (100 μL each) of the injected solution were always measured in parallel. The results of the biodistribution and excretion are reported as percent of injected dose per gram of tissue (% ID/g) and percent of injected dose per organ (% ID), respectively. All data are given as mean value±standard deviation, which were calculated by using all animals per time and sample.
# [1] = pancreas, 86 kBq per animal, % ID/g Pancreas
# [2] = stomach (without content), 86 kBq per animal, % ID/g Stomach
# [3] = stomach (without content), 86 kBq
# [4] = tail, 86 kBq per animal, % ID/g Tail
smiles,measurement,setting,value
"CC(C)C[C@H](NC(=O)C[C@H](O)[C@H](CC(C)C)NC(=O)[C@H](Cc1c[nH]cn1)NC(=O)CNC(=O)[C@@H](NC(=O)[C@H](C)NC(=O)[C@H](Cc1c[nH]c2ccccc12)NC(=O)[C@H](CCC(N)=O)NC(=O)[C@@H](Cc1ccccc1)NC(=O)CN1CCC(NC(=O)CN2CCN(CC(=O)O)CCN(CC(=O)O)CCN(CC(=O)O)CC2)CC1)C(C)C)C(N)=O [compound 2, [^177Lu]-DOTA-4-amino-1-carboxymethylpiperidine-D-Phe-Gln-Trp-Ala-Val-Gly-His-Sta-Leu-NH2, metal not drawn]",tissue uptake dose at 24 h,"lung, 86 kBq per animal",0.005 %ID
same,tissue uptake dose at 48 h,"lung, 86 kBq per animal",0.013 %ID
same,tissue uptake at 1 h,"lung, 86 kBq, % ID/g Lung",0.364 %ID/g
same,tissue uptake at 4 h,"lung, 86 kBq, % ID/g Lung",0.083 %ID/g
same,tissue uptake at 24 h,"lung, 86 kBq, % ID/g Lung",0.019 %ID/g
same,tissue uptake at 48 h,"lung, 86 kBq, % ID/g Lung",0.048 %ID/g
same,tissue uptake dose at 1 h,"muscle, 86 kBq per animal",0.014 %ID
same,tissue uptake dose at 4 h,"muscle, 86 kBq per animal",0.003 %ID
same,tissue uptake at 1 h,"muscle, 86 kBq, % ID/g Muscle",0.072 %ID/g
same,tissue uptake at 4 h,"muscle, 86 kBq, % ID/g Muscle",0.02 %ID/g
same,tissue uptake dose at 1 h,"organs (sum), 86 kBq",20.1 %ID
same,tissue uptake dose at 4 h,"organs (sum), 86 kBq",9.64 %ID
same,tissue uptake dose at 24 h,"organs (sum), 86 kBq",3.64 %ID
same,tissue uptake dose at 48 h,"organs (sum), 86 kBq",2.09 %ID
same,tissue uptake dose at 72 h,"organs (sum), 86 kBq",1.37 %ID
same,tissue uptake at 1 h,[1],18.7 %ID/g
same,tissue uptake at 4 h,[1],5.17 %ID/g
same,tissue uptake at 24 h,[1],0.579 %ID/g
same,tissue uptake at 48 h,[1],0.288 %ID/g
same,tissue uptake at 72 h,[1],0.206 %ID/g
same,tissue uptake dose at 1 h,"pancreas, 86 kBq",8.03 %ID
same,tissue uptake dose at 4 h,"pancreas, 86 kBq",1.74 %ID
same,tissue uptake dose at 24 h,"pancreas, 86 kBq",0.196 %ID
same,tissue uptake dose at 48 h,"pancreas, 86 kBq",0.076 %ID
same,tissue uptake dose at 72 h,"pancreas, 86 kBq",0.046 %ID
same,tissue uptake at 1 h,"prostate, 86 kBq per animal, % ID/g Prostate",0.289 %ID/g
same,tissue uptake dose at 1 h,"prostate, 86 kBq",0.003 %ID
same,tissue uptake dose at 1 h,"skin, 86 kBq per animal",1.81 %ID
same,tissue uptake dose at 4 h,"skin, 86 kBq per animal",0.515 %ID
same,tissue uptake dose at 24 h,"skin, 86 kBq per animal",0.162 %ID
same,tissue uptake dose at 48 h,"skin, 86 kBq per animal",0.246 %ID
same,tissue uptake dose at 72 h,"skin, 86 kBq per animal",0.152 %ID
same,tissue uptake at 72 h,"skin, 86 kBq per animal, % ID/g Skin",0.04 %ID/g
same,tissue uptake at 1 h,"skin, 86 kBq, % ID/g Skin",0.409 %ID/g
same,tissue uptake at 4 h,"skin, 86 kBq, % ID/g Skin",0.145 %ID/g
same,tissue uptake at 24 h,"skin, 86 kBq, % ID/g Skin",0.055 %ID/g
same,tissue uptake at 48 h,"skin, 86 kBq, % ID/g Skin",0.074 %ID/g
same,tissue uptake dose at 1 h,"spleen, 86 kBq per animal",0.034 %ID
same,tissue uptake dose at 4 h,"spleen, 86 kBq per animal",0.015 %ID
same,tissue uptake dose at 24 h,"spleen, 86 kBq per animal",0.005 %ID
same,tissue uptake dose at 48 h,"spleen, 86 kBq per animal",0.003 %ID
same,tissue uptake at 1 h,"spleen, 86 kBq, % ID/g Spleen",0.284 %ID/g
same,tissue uptake at 4 h,"spleen, 86 kBq, % ID/g Spleen",0.152 %ID/g
same,tissue uptake at 24 h,"spleen, 86 kBq, % ID/g Spleen",0.06 %ID/g
same,tissue uptake at 48 h,"spleen, 86 kBq, % ID/g Spleen",0.056 %ID/g
same,tissue uptake at 1 h,[2],2.56 %ID/g
same,tissue uptake at 4 h,[2],1.36 %ID/g
same,tissue uptake at 24 h,[2],0.081 %ID/g
same,tissue uptake at 48 h,[2],0.042 %ID/g
same,tissue uptake at 72 h,[2],0.02 %ID/g
same,tissue uptake dose at 1 h,[3],0.614 %ID
same,tissue uptake dose at 4 h,[3],0.321 %ID
same,tissue uptake dose at 24 h,[3],0.018 %ID
same,tissue uptake dose at 48 h,[3],0.01 %ID
same,tissue uptake dose at 72 h,[3],0.005 %ID
same,tissue uptake dose at 1 h,"tail, 86 kBq per animal",1.84 %ID
same,tissue uptake dose at 4 h,"tail, 86 kBq per animal",0.694 %ID
same,tissue uptake dose at 24 h,"tail, 86 kBq per animal",0.337 %ID
same,tissue uptake dose at 48 h,"tail, 86 kBq per animal",0.15 %ID
same,tissue uptake at 1 h,[4],2.23 %ID/g
same,tissue uptake at 4 h,[4],0.953 %ID/g
same,tissue uptake at 24 h,[4],0.436 %ID/g
same,tissue uptake at 48 h,[4],0.194 %ID/g
same,tissue uptake at 72 h,[4],0.313 %ID/g
same,tissue uptake dose at 72 h,"tail, 86 kBq",0.263 %ID
same,tissue uptake dose at 1 h,"thyroid, 86 kBq per animal",0.006 %ID
same,tissue uptake at 1 h,"thyroid, 86 kBq, % ID/g Thyroid",0.185 %ID/g
same,tissue uptake dose at 1 h,"tumor, 86 kBq per animal",1.12 %ID
same,tissue uptake dose at 4 h,"tumor, 86 kBq per animal",3.07 %ID
same,tissue uptake dose at 24 h,"tumor, 86 kBq per animal",2.19 %ID
same,tissue uptake dose at 48 h,"tumor, 86 kBq per animal",1.05 %ID
same,tissue uptake dose at 72 h,"tumor, 86 kBq per animal",0.55 %ID
same,tissue uptake at 1 h,"tumor, 86 kBq, % ID/g Tumor",5.6 %ID/g
same,tissue uptake at 4 h,"tumor, 86 kBq, % ID/g Tumor",8.1 %ID/g
same,tissue uptake at 24 h,"tumor, 86 kBq, % ID/g Tumor",6.06 %ID/g
same,tissue uptake at 48 h,"tumor, 86 kBq, % ID/g Tumor",3.58 %ID/g
same,tissue uptake at 72 h,"tumor, 86 kBq, % ID/g Tumor",2.49 %ID/g
same,dose excreted at 1 h,"urine, 86 kBq",71.8%
same,dose excreted at 4 h,"urine, 86 kBq",63.1%
same,dose excreted at 24 h,"urine, 86 kBq",76.3%
same,dose excreted at 48 h,"urine, 86 kBq",74%
same,dose excreted at 72 h,"urine, 86 kBq",63.7%
